From paper PMC4967814 (Cell, 2016)

Tests used:
[1] = molecular target: T1, recombinant human IFNα4 (Homo sapiens, UniProt P05014); assay: SPR; antibodies 19D11 and 26B9 immobilized on Biacore chips; different concentrations of recombinant human IFNs passed over; Biacore T200; details: both partners purified
T1 construct: interferon alpha-4, human; source: recombinant

[2] = molecular target: T2, recombinant human IFNα14 (Homo sapiens, UniProt P01570); assay: as above; details: both partners purified
T2 construct: interferon alpha-14, human; source: recombinant

[3] = molecular target: T3, recombinant human IFNω (Homo sapiens, UniProt P05000); assay: as above; details: both partners purified
T3 construct: interferon omega-1, human; source: recombinant

[4] = molecular target: T4, human IL22 (Homo sapiens, UniProt Q9GZX6); assay: SPR; Biacore T200; who was immobilised is not told for these mAbs (values of Table S3); details: both partners purified
T4 construct: interleukin-22, human; also called interleukin-22

[5] = molecular target: T5, human IL17F (Homo sapiens, UniProt Q96PD4); assay: ELISA; IL17F immobilized; mAbs and germline counterparts added
T5 construct: interleukin-17F, human

[6] = molecular target: T5, human IL17F; assay: SPR; Biacore T200; who was immobilised is not told for these mAbs (values of Table S3); details: both partners purified

T4 sequence (Q9GZX6 34-179): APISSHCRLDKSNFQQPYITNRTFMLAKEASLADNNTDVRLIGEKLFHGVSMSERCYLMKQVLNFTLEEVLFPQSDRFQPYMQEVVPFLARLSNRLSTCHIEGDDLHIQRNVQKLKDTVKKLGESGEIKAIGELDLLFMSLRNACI
T5 sequence (Q96PD4 31-163): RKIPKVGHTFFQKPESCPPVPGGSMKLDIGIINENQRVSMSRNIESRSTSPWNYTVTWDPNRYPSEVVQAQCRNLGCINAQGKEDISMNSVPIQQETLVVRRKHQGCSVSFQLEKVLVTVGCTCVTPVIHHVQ
T3 sequence (P05000 22-195): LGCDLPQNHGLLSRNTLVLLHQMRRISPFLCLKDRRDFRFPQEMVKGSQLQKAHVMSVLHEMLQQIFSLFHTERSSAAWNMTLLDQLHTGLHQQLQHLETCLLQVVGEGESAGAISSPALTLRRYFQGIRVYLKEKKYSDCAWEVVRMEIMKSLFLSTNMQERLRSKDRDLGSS
T2 sequence (P01570 24-189): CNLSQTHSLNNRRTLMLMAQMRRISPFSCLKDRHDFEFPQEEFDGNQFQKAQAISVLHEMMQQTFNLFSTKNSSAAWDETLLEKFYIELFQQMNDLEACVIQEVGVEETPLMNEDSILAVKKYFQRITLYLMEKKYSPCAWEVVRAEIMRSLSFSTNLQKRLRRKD
T1 sequence (P05014 24-189): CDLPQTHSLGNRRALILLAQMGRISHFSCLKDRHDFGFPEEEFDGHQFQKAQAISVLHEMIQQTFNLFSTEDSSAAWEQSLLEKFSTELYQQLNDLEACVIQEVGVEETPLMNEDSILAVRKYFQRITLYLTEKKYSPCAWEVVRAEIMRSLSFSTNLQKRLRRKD

B1: 26B9, APS1/APECED patient-derived anti-IFN monoclonal antibody (antibody, V domains shown)
VH: QILLQESGPGLVKPTETLSLTCSVSGDSISDSSHYWAWIRQPPGKGPEWIGSVYFSSMTHYNPSLKSRVSISVDKPKNQFSLKVTSVTVADTATYYCARQALARVGAMNWFDPWGQGSLVTVSS
VL: DIIMTQSPDSLPVSLGEGVTINCKSSQSVFFTSSNKSCLAWYQQKPGKSPKLLIYWASTRQSGVPDRFRGSGSGTDFSLTITSLQAEDVAVYFCQQCQTSPPTFGGGTRLEIK
notes: V regions cloned into vectors providing IgG1 and Ig-kappa constant regions; source: recombinant, harvested from transfected CHO cells (SPR); recombinant antibodies were also produced in HEK293T cells
For B1, the binding result [1] was “binds”, the Kd [2] was 0.0328 pM and the binding result [3] was “binds”.

B2: 35G11, patient-derived IgGλ antibody specific for IL22 (antibody, V domains shown)
VH: QVQLVQSGSELRRPGASVNISCKASGYGFNTYAMNWVRQAPGQGPEWMGWINTDTGDPTYAQGFTGRFAFFLDTSASTAFLQITRLTGEDTAVYFCARTRNNWNGVYYHYSGLDVWGQGTTVTVSS
VL: QSVLTQPPSASGTPGQTVTISCSGSSPNLGDNYVYWYHQVPGTAPKLLIFRNTQRPSGVTDRFSGSKYGTSASLAISDLRSDDEGDFYCASWDDRLSRLVFGGGTKLTVL
notes: lambda light chain; IgG1 lambda by the cloning vectors; source: recombinant
B2 was tested, and the Kd [4] was 39 pM.

B3: fezakinumab, CHO cell-expressed form (in-house-expressed anti-IL22 mAb) (antibody, V domains shown)
VH: QVQLVQSGAEVKKPGASVKVSCKASGYTFTNYYMHWVRQAPGQGLEWVGWINPYTGSAFYAQKFRGRVTMTRDTSISTAYMELSRLRSDDTAVYYCAREPEKFDSDDSDVWGRGTLVTVSS
VL: QAVLTQPPSVSGAPGQRVTISCTGSSSNIGAGYGVHWYQQLPGTAPKLLIYGDSNRPSGVPDRFSGSKSGTSASLAITGLQAEDEADYYCQSYDNSLSGYVFGGGTQLTVL
notes: expressed as the patient mAbs (vectors providing IgG1 and light-chain constant regions); source: CHO cell-expressed; V regions ordered as CHO-codon-optimized synthetic constructs (GenScript)
With B3 the Kd [4] was 54 pM.

B4: 9A2, patient-derived IL17F-reactive mAb (antibody, V domains shown)
VH: EVQLEESGGGLVQPGGSLRLSCAASGFPFSNYEMNWVRQAPGKGLEWISYISVSGGPAHYADSVKGRFTISRDDATKSLFLQMNRLRADDTAVYYCVRREYVTGRNYNYYPYMDVWGTGTTVTVSP
VL: DIQMTQSPSSLSASVGDRVTITCRASQTISDYLNWYQHKPGEAPKLLIYSASTLQRGVPSRFSGSGSGTDFVFTISSLQSDDFATYYCQQTSSTALTFGGGTKVEVK
notes: source: recombinant
B4: binds [5].

B5: 17E3, patient-derived IgGκ mAb specific for IL17F (antibody, V domains shown)
VH: QVQLVQSGAEVAKPGASVRLSCKASGFSFIKYYMHWVRQAPGQGLEWMGVIEPTGGGTSSAQKFRDRVTLSRDTSTATVHLEVSRLTLEDTGIYFCVRDSIYCKHGTCHRTVIDAFDIWGQGTAVTVSS
VL: DIQMTQSPSSLSASVGDRVTITCRSSQDIKNDLAWYQQKPGKAPERLIYAASNLQSGVPSRFSGSGSGTEFSLTISGLQPEDFATYYCLQHNSYPLLTFGGGTKVEIK
notes: kappa light chain; IgG1 kappa by the cloning vectors; source: recombinant
Work on B5 yielded a Kd [6] of under 10 pM.

B6: 30G1, patient-derived IgGκ antibody specific for IL22 (antibody, V domains shown)
VH: EVQLLESGGGLVQPGGSLRLSCAASGFTFSTYAMSWVRQAPGKGLEWVSTITSSGGATYHADSVKGRLTISRDNSKNTLYLEMNSLRVEDTAVYYCAKDWGRTVYAVIKDLDIWGQGTLVTVSS
VL: EIVMTQSPAILSVSPGERATLSCRASQSVSNYLAWFQQKPGQAPRLLIYDTSKRATGTPARFSGSGSGTDFTLTISSLEPEDFAVYFCQQRSDWPQYTFGQGTKLEIK
notes: as for B5
Binder B6 has a Kd [4] of 37 pM.

B7: 19D11, APS1/APECED patient-derived anti-IFN monoclonal antibody (antibody, V domains shown)
VH: QVQLVQSGAEVKRPGSSVRVSCRASGDTFSSYPISWVRQAPGQGLEWMGRILPALGVTNYAQNFRGRITITADKSPLTAYLELSSLRFEDTAVYYCASPSADIIPSILGTTLFAFWGQGSLVTVSS
VL: EIVLTQSPGTLSLSPGEGATLSCRASQNVSRHYLTWYQQKPGQSPRLLIYGGSSRATGVPDRFSGGGSGTDFTLTISRLEPEDFAVFYCQSYHSPPPVYTFGQGTKVEIK
notes: as for B1
B7: no binding [3].
